In the nanobody polyreactivity screen of Harvey et al. (2022):

Assay: yeast display, Sf9 membrane polyspecificity reagent, FACS + sequencing; frameworks hold sequencing errors
In short: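 Galactose-induced (36–48 hours) yeast carrying a synthetic nanobody display library were exposed to 10% biotinylated, detergent-solubilized Sf9 membrane reagent at 4 °C for 1 hour. FACS followed streptavidin microbead enrichment, using low and high (top ~1%) gates for expression (anti-HA) and reagent binding (streptavidin). Colony PCR, MiSeq 2 × 250 sequencing and CDR-length filtering followed. Labels for polyreactivity reflect the gate of origin.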

Sequence	polyreactivity (PSR sort gate)
QVQLVESGGGLVQAGGSLRLSCAASGSTFSNYAMGWYRQAPGKERELVASISNGGSTNYADSVKGRFTISRDNAKNTVYLQMNSLKPEDTAVYYCNAESKAKYDYWGQGTQVTVSS	low polyreactivity
QVQLVESGGGLVQAGGSLRLSCAASGSTFSPYAMGWYRQAPGKERELVAAINYSSGSTYYADSVKGRFTISRDNAKNTVYFQMNSLKTEDTAVYYCAKGWYAGYPYDYWGQGTQVTVSS	low polyreactivity
QVQLVESGGGLVQAGGSLRLSCAASGSTFSPYAMGWYRQAPGKERELVANITISGGSTYYADSVKGRFTISRDNAKNTVYIQMNSLKPEDTAVYYCNADSLIRWLFTVVIFDYWGQGTLVTVSS	low polyreactivity
QVQLVESGGGLVQAGGSLRLSCAASGSTFSPYAMGWYRQAPGKERELVANITISGGSTYYADSVKGRFTISRDNAKNTVYLQMNSLKPEDTAVYFCNADSLIRWLFTVVIFDYWGQGTQVTVSS	low polyreactivity
QVQLVESGGGLVQAGGSLRLSCAASGSTFSQNALGWYRQAPGKDRELVAAITSGGITYYADSVKGRFTMSRDNAKNTVYLQMNSLKPEDTAVYYCAADFWPSGRGVAFDYWGQGTQVTVSS	low polyreactivity
QVQLVESGGGLVQAGGSLRLSCAASGSTFSRNAMGWYRQAPGKERELVAAISWRGGRTYYADSVKGRFTISRDNAKNTVYLQMNSLKPEDTAVYYCAAEHKYRYDYWGQGTQVTVSS	low polyreactivity
QVQLVESGGGLVQAGGSLRLSCAASGSTFSRNAMGWYRQAPGKERELVAAITLRGTNTYYADSVKGRFTISRDNAKNTVYLQMNSLKPEDTAVYYCAALRRGSGRYDMDYWGQGTQVTVSS	high polyreactivity
QVQLVESGGGLVQAGGSLRLSCAASGSTFSRNASGWYRQAPGKERELVAAISRRGDTTYYADSVKGRFTISRDNAKNTVYLQMNSLKPEDTAVYYCNRLTIGSSSYDYWGQGTQVTVSS	high polyreactivity
QVQLVESGGGLVQAGGSLRLSCAASGSTFSRYAMGWYRQAPGKEMELVAAITGSGGNTYYADSVKGRFTISRDNAKNTVYLQMNSLKPEDTAVYYCAAEDYVGWYNFEYWGQGTQVTVSS	high polyreactivity
QVQLVESGGGLVQAGGSLRLSCAASGSTFSRYAMGWYRQAPGKEREFGAAISRRAGGTYYADSVKGRFTISRDNAKNTVYLQMNSLKPEDTAVYYCAKVLPRDYIGRATYDYWGQGTQVTVSS	high polyreactivity
QVQLVESGGGLVQAGGSLRLSCAASGSTFSRYAMGWYRQAPGKERELVAAISSRGGSTYYADSVKGRFTISRDNAKNTVYLQMNSLKPEDTAVYYCNALTSYQNHVYPYDYWGQGTEVTVSS	high polyreactivity
QVQLVESGGGLVQAGGSLRLSCAASGSTFSRYAMGWYRQAPGKERELVAAITRSGGGTHYADSVKGRFTISRDNAKNTVYLQMNSLKPEDTAVYYCATDYTKYPTGYYYWGQGTQVTVSS	low polyreactivity
QVQLVESGGGLVQAGGSLRLSCAASGSTFSRYSMGWYRQAPGKERELVAAITGRGGRTYYADSVKGRFTISRDNAKKTVYLQLNSLKPEDTAVYYCAAYYGPYRSLYYYWGQGNQVTVSS	high polyreactivity
QVQLVESGGGLVQAGGSLRLSCAASGSTFSRYTMGWYRQAPGKERELVAVITRRGGSTYYADSVKGRFTISRDNAKNTVYLQMNSLKPADTAVYYCAADYKYPIDYGYWGQGTQVTVSS	high polyreactivity
QVQLVESGGGLVQAGGSLRLSCAASGSTFSSNAMGWYRQAPGKEREFVAAISRRTGSTYYADSVKGRFTISRDNANNTVYLQMNSLKPEDTAVYYSAATGEKLARSSFGYWGQGTQVTVSS	low polyreactivity
QVQLVESGGGLVQAGGSLRLSCAASGSTFSSNAMGWYRQAPGKERELVAAISKRGGRTYYADSVKGRFTISRDNAKNTVYLQMNSLKPEDTAVYYCAKDYSSAVDYWGQGTQVTVSS	high polyreactivity
QVQLVESGGGLVQAGGSLRLSCAASGSTFSSYAMGWYRQAPGKERELVAAISSSGGTSTYADSVKGRFTISRDNAKNTVYLQMNSLKPEDTAVYYCAARQYRRLRDYRHDYWGQGTQVTVSS	high polyreactivity
QVQLVESGGGLVQAGGSLRLSCAASGSTFSSYAMGWYRQAPGKERELVAAISYSGGSTYYADSVKGRFTISRDNAKNTVYLQMNSLKPEDTAVYYCAAVGTWQHRSYGYWGQGTQVTVSS	high polyreactivity
QVQLVESGGGLVQAGGSLRLSCAASGSTFSSYAMGWYRQAPGKERELVAAITSGTRTYYADSVKGRFTISRDNAKNTVYFQMNSLKPEDTAVYYCAAPTSSSGRYHRYYYWVQGTQVTVSS	high polyreactivity
QVQLVESGGGLVQAGGSLRLSCAASGSTFSSYAMGWYRQAPGKERELVAAITSRGSRTFYADSVKGRFTISRDNAKNTVYLQMNSLKPEDTAVYYCAAYFRIGTFGQYDYWGQGTQVTVSS	high polyreactivity
QVQLVESGGGLVQAGGSLRLSCAASGSTFSSYGMGWYRQAPGKERELVAAISKRGGSTYYADSVKGRFTISRDNAKNTVYLQMNSLKPEDTAVYYCAARYRLYYYFRFDWGQGTHVTVSS	high polyreactivity
QVQLVESGGGLVQAGGSLRLSCAASGSTFSSYVMGWYRQAPGKERELVAGITRGGRTYYADSVKGRFTISRDNAKNTGYLQMNSLKPEDTAVYYCAKDQGGVHELDYWGQGTQVTVSS	low polyreactivity
